Test results taken from patent US20240384250A1, “FIBROBLAST GROWTH FACTOR 23 MODULATING COMPOUNDS” (THE UAB RESEARCH FOUNDATION, priority 2021, published 2024).
“Also recorded” adds a separate entry of the source. Blank lines part the entries; values can stand above or below the molecule they belong to.

Tested on: FGF23 and FGFR1c
Experiment: sKL detection assay (FGF23 coated, Fc-FGFR1c detection)
Assay type: binding
Details: for binding in the sKL detection assay: commercial preparations compared with the sKL protein; for binding in the sKL detection assay, total cell lysates: lysates of stably transfected HEK293T cells
Description: Commercially available ELISA plates (Maxisorp) are coated with 5 μg/ml of recombinant FGF23 protein (R&D Systems) and unspecific binding sites are blocked with BSA/Tween20. Wells are incubated with sKL in solution (which can be plasma, serum or cell culture supernatants) for one hour, washed and incubated for one hour with 750 ng/ml of recombinant FGFR1α(IIIc)-Fc (R&D Systems), which is a chimeric protein consisting of the FGFR1 ectodomain and the Fc region of a human IgG. FGFR1 only binds to FGF23 in the presence of sKL, and the formation of this trimeric sandwich complex is then measured by detecting the presence of the Fc domain that is coupled to FGFR1. To do so, wells are washed and incubated with 400 ng/ml of anti-human IgG conjugated to horseradish peroxidase (HRP; Promega). Wells are washed and incubated with HRP substrate. After development for about 30 minutes, reactions are analyzed on a standard plate reader via absorptions at […]. Incubations with recombinant sKL dissolved in PBS at defined concentrations serve as standards that are used as reference values to determine sKL concentrations in the studied human samples. […]
HEK293 cells were plated in 10 cm dishes supplemented with 10% FBS (26140079, Gibco) and I× Pen/Strep (15140122, Gibco). Cells were transfected with appropriate klotho or green fluorescent protein cDNA constructs. After 2 days, clones were selected by using 1 μg/ml of puromycin (A1113803, Gibco). Cells were then split and plated in 10 cm dishes in DMEM supplemented with FBS and puromycin. After 48 hours, cells were lysed in 1 ml of RIPA buffer with the addition of a protease inhibitor (11873580001, Roche) for 30 minutes. The mixture was then centrifuged at 20,000 g for 1 hour to remove all cell debris. Activity assay was run as above in the sKL halflife study. Instead of serum, 20 μl of the indicated cell lysate was used and combined with 80 μl of activity assay buffer.

binding in the sKL detection assay: significantly reduced binding
B1: Com.sKL: commercial preparation, mouse sKL from R&D Systems (1819KL050), aa 35-982 (protein)
chain: AEPGQGAQTWARFARAPAPEAAGLLHDTFPDGFLWAVGSAAYQTEGGWRQHGKGASIWDTFTHHSGAAPSDSPIVVAPSGAPSPPLSSTGDVASDSYNNVYRDTEGLRELGVTHYRFSISWARVLPNGTAGTPNREGLRYYRRLLERLRELGVQPVVTLYHWDLPQRLQDTYGGWANRALADHFRDYAELCFRHFGGQVKYWITIDNPYVVAWHGYATGRLAPGVRGSSRLGYLVAHNLLLAHAKVWHLYNTSFRPTQGGRVSIALSSHWINPRRMTDYNIRECQKSLDFVLGWFAKPIFIDGDYPESMKNNLSSLLPDFTESEKRLIRGTADFFALSFGPTLSFQLLDPNMKFRQLESPNLRQLLSWIDLEYNHPPIFIVENGWFVSGTTKRDDAKYMYYLKKFIMETLKAIRLDGVDVIGYTAWSLMDGFEWHRGYSIRRGLFYVDFLSQDKELLPKSSALFYQKLIEDNGFPPLPENQPLEGTFPCDFAWGVVDNYVQVDTTLSQFTDPNVYLWDVHHSKRLIKVDGVVAKKRKPYCVDFSAIRPQITLLREMRVTHFRFSLDWALILPLGNQTQVNHTVLHFYRCMISELVHANITPVVALWQPAAPHQGLPHALAKHGAWENPHTALAFADYANLCFKELGHWVNLWITMNEPNTRNMTYRAGHHLLRAHALAWHLYDDKFRAAQKGKISIALQADWIEPACPFSQNDKEVAERVLEFDIGWLAEPIFGSGDYPRVMRDWLNQKNNFLLPYFTEDEKKLVRGSFDFLAVSHYTTILVDWEKEDPMKYNDYLEVQEMTDITWLNSPSQVAVVPWGLRKVLNWLRFKYGDLPMYVTANGIDDDPHAEQDSLRIYYIKNYVNEALKAYVLDDINLCGYFAYSLSDRSAPKSGFYRYAANQFEPKPSMKHYRKIIDSNGFLGSGTLGRFCPEEYTVCTECGFFQTRK

B2: KL: full-length klotho in total lysates of stably transfected HEK293T cells (protein, UniProt Q9UEF7 1-1012, looked up)
chain: MPASAPPRRPRPPPPSLSLLLVLLGLGGRRLRAEPGDGAQTWARFSRPPAPEAAGLFQGTFPDGFLWAVGSAAYQTEGGWQQHGKGASIWDTFTHHPLAPPGDSRNASLPLGAPSPLQPATGDVASDSYNNVFRDTEALRELGVTHYRFSISWARVLPNGSAGVPNREGLRYYRRLLERLRELGVQPVVTLYHWDLPQRLQDAYGGWANRALADHFRDYAELCFRHFGGQVKYWITIDNPYVVAWHGYATGRLAPGIRGSPRLGYLVAHNLLLAHAKVWHLYNTSFRPTQGGQVSIALSSHWINPRRMTDHSIKECQKSLDFVLGWFAKPVFIDGDYPESMKNNLSSILPDFTESEKKFIKGTADFFALCFGPTLSFQLLDPHMKFRQLESPNLRQLLSWIDLEFNHPQIFIVENGWFVSGTTKRDDAKYMYYLKKFIMETLKAIKLDGVDVIGYTAWSLMDGFEWHRGYSIRRGLFYVDFLSQDKMLLPKSSALFYQKLIEKNGFPPLPENQPLEGTFPCDFAWGVVDNYIQVDTTLSQFTDLNVYLWDVHHSKRLIKVDGVVTKKRKSYCVDFAAIQPQIALLQEMHVTHFRFSLDWALILPLGNQSQVNHTILQYYRCMASELVRVNITPVVALWQPMAPNQGLPRLLARQGAWENPYTALAFAEYARLCFQELGHHVKLWITMNEPYTRNMTYSAGHNLLKAHALAWHVYNEKFRHAQNGKISIALQADWIEPACPFSQKDKEVAERVLEFDIGWLAEPIFGSGDYPWVMRDWLNQRNNFLLPYFTEDEKKLIQGTFDFLALSHYTTILVDSEKEDPIKYNDYLEVQEMTDITWLNSPSQVAVVPWGLRKVLNWLKFKYGDLPMYIISNGIDDGLHAEDDQLRVYYMQNYINEALKAHILDGINLCGYFAYSFNDRTAPRFGLYRYAADQFEPKASMKHYRKIIDSNGFPGPETLERFCPEEFTVCTECSFFHTRKSLLAFIAFLFFASIISLSLIFYYSKKGRRSYK
modifications: full-length
notes: full-length klotho in total lysates of stably transfected HEK293T cells
binding in the sKL detection assay, total cell lysates: much weaker binding | binding in the sKL detection assay, total cell lysates (listed as full-length klotho): negative

B3: sBKL: soluble β-klotho in total lysates of stably transfected HEK293T cells (protein)
chain: MKTGCAAGSPGNEWIFFSSDERNTRSRKTMSNRALQRSAVLSAFVLLRAVTGFSGDGKAIWDKKQYVSPVNPSQLFLYDTFPKNFSWGVGTGAFQVEGSWKTDGRGPSIWDRYVYSHLRGVNGTDRSTDSYIFLEKDLLALDFLGVSFYQFSISWPRLFPNGTVAAVNAQGLRYYRALLDSLVLRNIEPIVTLYHWDLPLTLQEEYGGWKNATMIDLFNDYATYCFQTFGDRVKYWITIHNPYLVAWHGFGTGMHAPGEKGNLTAVYTVGHNLIKAHSKVWHNYDKNFRPHQKGWLSITLGSHWIEPNRTDNMEDVINCQHSMSSVLGWFANPIHGDGDYPEFMKTGAMIPEFSEAEKEEVRGTADFFAFSFGPNNFRPSNTVVKMGQNVSLNLRQVLNWIKLEYDDPQILISENGWFTDSYIKTEDTTAIYMMKNFLNQVLQAIKFDEIRVFGYTAWTLLDGFEWQDAYTTRRGLFYVDFNSEQKERKPKSSAHYYKQIIQDNGFPLKESTPDMKGRFPCDFSWGVTESVLKPEFTVSSPQFTDPHLYVWNVTGNRLLYRVEGVRLKTRPSQCTDYVSIKKRVEMLAKMKVTHYQFALDWTSILPTGNLSKVNRQVLRYYRCVVSEGLKLGVFPMVTLYHPTHSHLGLPLPLLSSGGWLNMNTAKAFQDYAELCFRELGDLVKLWITINEPNRLSDMYNRTSNDTYRAAHNLMIAHAQVWHLYDRQYRPVQHGAVSLSLHCDWAEPANPFVDSHWKAAERFLQFEIAWFADPLFKTGDYPSVMKEYIASKNQRGLSSSVLPRFTAKESRLVKGTVDFYALNHFTTRFVIHKQLNTNRSVADRDVQFLQDITRLSSPSRLAVTPWGVRKLLAWIRRNYRDRDIYITANGIDDLALEDDQIRKYYLEKYVQEALKAYLIDKVKIKGYYAFKLTEEKSKPRFGFFTSDFRAKSSVQFYSKLISSSGLPAENRSPACGQPAEDTDCTICSFLVEKKP
modifications: left off: small tags and cut ends
notes: soluble β-klotho in total lysates of stably transfected HEK293T cells
binding in the sKL detection assay, total cell lysates: no measurable binding activity

B4: KL1: human klotho domain 1 (KL1) from PeproTech, aa 34-549 (protein)
chain: EPGDGAQTWARFSRPPAPEAAGLFQGTFPDGFLWAVGSAAYQTEGGWQQHGKGASIWDTFTHHPLAPPGDSRNASLPLGAPSPLQPATGDVASDSYNNVFRDTEALRELGVTHYRFSISWARVLPNGSAGVPNREGLRYYRRLLERLRELGVQPVVTLYHWDLPQRLQDAYGGWANRALADHFRDYAELCFRHFGGQVKYWITIDNPYVVAWHGYATGRLAPGIRGSPRLGYLVAHNLLLAHAKVWHLYNTSFRPTQGGQVSIALSSHWINPRRMTDHSIKECQKSLDFVLGWFAKPVFIDGDYPESMKNNLSSILPDFTESEKKFIKGTADFFALCFGPTLSFQLLDPHMKFRQLESPNLRQLLSWIDLEFNHPQIFIVENGWFVSGTTKRDDAKYMYYLKKFIMETLKAIKLDGVDVIGYTAWSLMDGFEWHRGYSIRRGLFYVDFLSQDKMLLPKSSALFYQKLIEKNGFPPLPENQPLEGTFPCDFAWGVVDNYIQVDTTLSQFTDLNVYLW
binding in the sKL detection assay: cannot mediate FGF23-FGFR1c binding; also recorded: did not show any bioactivity; also recorded: no binding
